In patent publication US20060058231A1 (Xencor, published 2006):
Where a chain is given by its changes, count along the chain named.

B1: BMP-7 variant E60H (ligand)
chain: STGGKQRSQNRSKTPKNQEALRMASVAENSSSDQRQACKKHELYVSFRDLGWQDWIIAPHGYAAYYCEGECAFPLNSYMNATNHAIVQTLVHFINPETVPKPCCAPTQLNAISVLYFDDSSNVILKKYRNMVVRACGCH
notes: In conditioned media; numbering on mature BMP-7
B2: BMP-7 variant S77H (ligand)
chain: B1 chain with H60E, S77H
notes: as for B1
B3: BMP-7 variant F93D (ligand)
chain: B1 chain with H60E, F93D
notes: as for B1
B4: BMP-7 variant F117K (ligand)
chain: B1 chain with H60E, F117K
notes: as for B1
B5: BMP-7 variant W55A (ligand)
chain: B1 chain with W55A, H60E
notes: as for B1
B6: BMP-7 variant F93E (ligand)
chain: B1 chain with H60E, F93E
notes: as for B1
B7: BMP-7 variant E60P (ligand)
chain: B1 chain with H60P
notes: as for B1
B8: BMP-7 variant L90R (ligand)
chain: B1 chain with H60E, L90R
notes: as for B1
B9: BMP-7 variant R48E (ligand)
chain: B1 chain with R48E, H60E
notes: as for B1
B10: BMP-7 variant W52P (ligand)
chain: B1 chain with W52P, H60E
notes: as for B1
B11: BMP-7 variant F73Q (ligand)
chain: B1 chain with H60E, F73Q
notes: as for B1
B12: BMP-7 variant F73S (ligand)
chain: B1 chain with H60E, F73S
notes: as for B1
B13: BMP-7 variant F73E (ligand)
chain: B1 chain with H60E, F73E
notes: as for B1
B14: BMP-7 variant L115A (ligand)
chain: B1 chain with H60E, L115A
notes: as for B1
B15: BMP-7 variant F93T (ligand)
chain: B1 chain with H60E, F93T
notes: as for B1
B16: BMP-7 variant F73K (ligand)
chain: B1 chain with H60E, F73K
notes: as for B1
B17: BMP-7 variant F93G (ligand)
chain: B1 chain with H60E, F93G
notes: as for B1
B18: BMP-7 variant F117S (ligand)
chain: B1 chain with H60E, F117S
notes: as for B1
B19: BMP-7 variant L21E (ligand)
chain: B1 chain with L21E, H60E
notes: as for B1
B20: BMP-7 variant F93H (ligand)
chain: B1 chain with H60E, F93H
notes: as for B1
B21: BMP-7 variant F73D (ligand)
chain: B1 chain with H60E, F73D
notes: as for B1
B22: BMP-7 variant F93A (ligand)
chain: B1 chain with H60E, F93A
notes: as for B1
B23: BMP-7 variant F73N (ligand)
chain: B1 chain with H60E, F73N
notes: as for B1

Key:
Assay in all cases: ELISA-like plate assay, captured BMP-7 from conditioned media, receptor-Fc detection
[1] = target: T1, ActRIIa receptor-Fc fusion (UniProt P27037 20-134, limits assumed)
T1 construct: BMP receptor-Fc fusion used at 5 ug/mL
T1 sequence (P27037 20-134 limits assumed): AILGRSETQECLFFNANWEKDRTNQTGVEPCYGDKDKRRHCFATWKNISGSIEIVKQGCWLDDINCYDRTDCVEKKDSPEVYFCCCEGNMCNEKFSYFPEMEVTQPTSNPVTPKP

[2] = target: T2, BMPRIa receptor-Fc fusion (UniProt P36894 24-152, limits assumed)
T2 construct: also called ALK-3
T2 sequence (P36894 24-152 limits assumed): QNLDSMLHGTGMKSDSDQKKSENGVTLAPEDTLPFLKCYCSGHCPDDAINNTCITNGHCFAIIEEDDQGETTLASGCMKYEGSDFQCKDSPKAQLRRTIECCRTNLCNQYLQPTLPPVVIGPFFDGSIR

[3] = target: T3, BMPRIb receptor-Fc fusion (UniProt O00238 14-126)
T3 construct: BMP receptor-Fc fusion used at 5 ug/mL; also called ALK-6
T3 sequence (looked up): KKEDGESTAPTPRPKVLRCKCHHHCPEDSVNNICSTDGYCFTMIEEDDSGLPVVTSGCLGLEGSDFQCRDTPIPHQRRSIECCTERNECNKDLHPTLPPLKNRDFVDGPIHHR

[4] = target: T4, BMPRII receptor-Fc fusion (UniProt Q13873 27-151, limits assumed)
T4 construct: BMP receptor-Fc fusion used at 5 ug/mL
T4 sequence (looked up): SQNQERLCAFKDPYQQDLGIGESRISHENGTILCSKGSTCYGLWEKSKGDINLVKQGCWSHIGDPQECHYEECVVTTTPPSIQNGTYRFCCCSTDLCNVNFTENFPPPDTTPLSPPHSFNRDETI

Row | Binder | ActRIIa binding (relative to wild type = 1.0) [1] | BMPRIa binding (relative to wild type = 1.0) [2] | BMPRIb binding (relative to wild type = 1.0) [3] | BMPRII binding (relative to wild type = 1.0) [4]
1 | B1 | 0.86 relative to wild type | 0.34 relative to wild type | 0.42 relative to wild type | 1.25 relative to wild type
2 | B2 | 0.42 relative to wild type | 0.29 relative to wild type | 0.3 relative to wild type | 
3 | B3 | 0.8 relative to wild type | 0.96 relative to wild type | 0.91 relative to wild type | 0.62 relative to wild type
4 | B4 | 0.34 relative to wild type | 0.43 relative to wild type | 0.62 relative to wild type | 0.2 relative to wild type
5 | B5 |  | 0.1 relative to wild type | 0.23 relative to wild type | 
6 | B6 | 0.79 relative to wild type | 0.83 relative to wild type | 0.99 relative to wild type | 0.62 relative to wild type
7 | B7 | 0.94 relative to wild type | 0.47 relative to wild type | 0.53 relative to wild type | 1.01 relative to wild type
8 | B8 | 0.47 relative to wild type |  |  | 
9 | B9 | 0.34 relative to wild type | 0.45 relative to wild type |  | 
10 | B10 |  |  | 0.14 relative to wild type | 
11 | B11 | 1.87 relative to wild type | 1.05 relative to wild type | 1.71 relative to wild type | 2.85 relative to wild type
12 | B12 | 2.54 relative to wild type | 0.9 relative to wild type | 0.25 relative to wild type | 2.84 relative to wild type
13 | B13 | 1.87 relative to wild type | 0.55 relative to wild type | 1.23 relative to wild type | 1.77 relative to wild type
14 | B14 |  |  | 0.17 relative to wild type | 
15 | B15 | 0.79 relative to wild type | 0.77 relative to wild type | 0.88 relative to wild type | 0.81 relative to wild type
16 | B16 | 0.61 relative to wild type | 0.69 relative to wild type | 1.14 relative to wild type | 0.38 relative to wild type
17 | B17 | 0.63 relative to wild type | 0.6 relative to wild type | 0.53 relative to wild type | 0.35 relative to wild type
18 | B18 | 0.11 relative to wild type | 0.15 relative to wild type |  | 
19 | B19 | 0.25 relative to wild type | 0.12 relative to wild type | 0.16 relative to wild type | 
20 | B20 | 0.98 relative to wild type | 1.03 relative to wild type | 1.04 relative to wild type | 1.2 relative to wild type
21 | B21 | 2.5 relative to wild type | 0.33 relative to wild type | 0.64 relative to wild type | 3.05 relative to wild type
22 | B22 | 0.11 relative to wild type | 0.1 relative to wild type | 0.24 relative to wild type | 
23 | B23 | 0.89 relative to wild type | 0.51 relative to wild type | 0.95 relative to wild type | 0.85 relative to wild type
